{"source": "patent US20160200763", "proteins": {"B1": {"name": "Bacterially expressed Purified GSK-3β Wild-Type (WT) (protein)", "chain": "MSGRPRTTSFAESCKPVQQPSAFGSMKVSRDKDGSKVTTVVATPGQGPDRPQEVSYTDTKVIGNGSFGVVYQAKLCDSGELVAIKKVLQDKRFKNRELQIMRKLDHCNIVRLRYFFYSSGEKKDEVYLNLVLDYVPETVYRVARHYSRAKQTLPVIYVKLYMYQLFRSLAYIHSFGICHRDIKPQNLLLDPDTAVLKLCDFGSAKQLVRGEPNVSYICSRYYRAPELIFGATDYTSSIDVWSAGCVLAELLLGQPIFPGDSGVDQLVEIIKVLGTPTREQIREMNPNYTEFKFPQIKAHPWTKDSSGTGHFTSGVRVFRPRTPPEAIALCSRLLEYTPTARLTPLEACAHSFFDELRDPNVKLPNGRDTPALFNFTTQELSSNPPLATILIPPHARIQAAASTPTNATAASDANTGDRGQTNNAASASASNST"}, "B2": {"name": "GSK-3β F93A mutant (in which Phe93 was replaced by alanine) (protein)", "chain": "B1 chain with F93A"}}, "key": {"L807": {"biological_target": "T1, L807", "T1 chain": "KEAPPSPPQSP"}, "pL807": {"biological_target": "T2, pL807", "T2 chain": "KEAPPSPPQSP"}}, "note": "Numbering of substitutions follows the chain as printed. Names may count otherwise."}
{"protein": "B1", "values": [{"measurement": "peptide phosphorylation by GSK-3β (in vitro kinase assay, 32P-γ-ATP)", "setting": "L807", "result": "shows that L807 is a substrate of GSK-3"}, {"measurement": "peptide phosphorylation by WT GSK-3β (in vitro kinase assay)", "setting": "L807", "result": "L807 is phosphorylated by both GSK-3 and F93A"}, {"measurement": "peptide phosphorylation by GSK-3β (in vitro kinase assay, 32P-γ-ATP)", "setting": "pL807", "result": "pL807 is not a substrate of GSK-3"}]}
{"protein": "B2", "values": [{"measurement": "peptide phosphorylation by the F93A mutant (in vitro kinase assay)", "setting": "L807", "result": "L807 is phosphorylated by both GSK-3 and F93A"}]}
